{
  "source": "paper doi:10.1101/2022.03.21.485092",
  "target": "hnRNP A1 spin-labelled at 231 (Homo sapiens, UniProt P09651-2 1-320, M1G;C43S;C175A;S231C)",
  "assay": "CW EPR",
  "data": [
    {"binder": "CCAGCAUUAUGAAAAUGA (ssRNA)", "note": "[RNAga (3' AG motif mutated)]", "values": [
      {"measurement": "binding result", "value": "binds"}
    ]}
  ]
}
